Laboratory results as given in PMC8034616.
Residue numbers refer to the chain shown, from its start.

What was measured:
[1] = test system: T1, H-NS A42 S42A (Shewanella oneidensis MR-1), ORF:b65510ad; assay: analytical ultracentrifugation
T1 sequence: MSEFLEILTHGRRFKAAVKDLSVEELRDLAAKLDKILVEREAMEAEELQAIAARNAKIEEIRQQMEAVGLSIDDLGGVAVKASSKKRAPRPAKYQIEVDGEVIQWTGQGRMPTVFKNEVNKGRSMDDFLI

[2] = test system: T2, H-NS A2 S2A (Shewanella oneidensis MR-1), ORF:b65510ad; assay: analytical ultracentrifugation
T2 sequence: T1 sequence with S2A, A42S

[3] = test system: T3, H-NS A71 S71A (Shewanella oneidensis MR-1), ORF:b65510ad; assay: analytical ultracentrifugation
T3 sequence: T1 sequence with A42S, S71A

[4] = test system: T1, H-NS A42 S42A (Shewanella oneidensis MR-1), ORF:b65510ad; assay: EMSA
[5] = test system: T2, H-NS A2 S2A (Shewanella oneidensis MR-1), ORF:b65510ad; assay: EMSA
[6] = test system: T3, H-NS A71 S71A (Shewanella oneidensis MR-1), ORF:b65510ad; assay: EMSA

Measured: binding

GATTTTCTAGTGACAGAAGGTTTTAGCGTTGATAATGCCAAATATGCTGAATTATTTTTGAGACCGAGTAAATTTCTTAGGGGACCAAAAAAACGCATATAATACAATGGATAATGCAATTTAGGTGAGCAAAGGGGACCGTTTTTACCCCGTTTATTCATGCTTCATAACCATCTAATCTCAGGGTTGTAGACGTTTATTCACAACTCTGAGGACGATTATGAACACAACTCTCAC (double strand) [alpA promoter (PalpA)]
binds: all assays above
